# Assay results reported in patent US20250320281A1.
# What was measured:
# Assay in all cases: cell-based or functional assay
# [1] = target: HIV-1 Env of pseudovirus MGRM-F1-023 (HIV-1)
# [2] = target: HIV-1 Env of isolate MGRM-D-026 (clade D pseudovirus) (HIV-1)
# [3] = target: envelope protein of aMLV pseudovirus (negative control)
# [4] = target: HIV-1 Env of isolate MGRM-Chronic-B-002, clade B, on pseudovirus (HIV-1)
# [5] = target: HIV-1 envelope glycoprotein (Env) of isolate 92RW009, clade A (HIV-1)
# [6] = target: HIV-1 Env of isolate TRO.11 (Acute), clade B, on pseudovirus (HIV-1)
# [7] = target: HIV-1 IAVI-C3 envelope glycoprotein (Env) on pseudovirus (HIV-1)
# [8] = target: HIV-1 Env of isolate MGRM-D-029 (clade D pseudovirus) (HIV-1)
# [9] = target: HIV-1 envelope glycoprotein (Env) of isolate 94UG103, clade A (HIV-1)
# [10] = target: HIV-1 Env of isolate VLGCA1 (clade A pseudovirus) (HIV-1)
# [11] = target: HIV-1 envelope glycoprotein (Env) of isolate MGRM-A-009, clade A (HIV-1)
# [12] = target: HIV-1 CMU02 envelope glycoprotein (Env) on pseudovirus (HIV-1)
# [13] = target: HIV-1 envelope glycoprotein (Env) of isolate MGRM-A-001, clade A (HIV-1)
# [14] = target: HIV-1 Env of isolate APV_13, clade B, on pseudovirus (HIV-1)
# 1443_C16 (PG16) (TCN-116) (antibody), sequence (VH): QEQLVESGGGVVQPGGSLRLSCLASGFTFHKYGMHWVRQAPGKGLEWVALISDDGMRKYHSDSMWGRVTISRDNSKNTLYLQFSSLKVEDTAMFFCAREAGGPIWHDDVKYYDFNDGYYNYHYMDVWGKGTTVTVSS
# 1443_C16 (PG16) (TCN-116) (antibody), sequence (VL): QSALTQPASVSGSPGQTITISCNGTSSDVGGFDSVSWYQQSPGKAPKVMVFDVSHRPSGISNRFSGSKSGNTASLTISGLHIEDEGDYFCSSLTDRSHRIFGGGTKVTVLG
Substance,"IC50 (µg/ml), pseudovirus neutralization [1] [µg/mL]","IC50 (µg/ml), pseudovirus neutralization [2] [µg/mL]","IC50 (µg/ml), pseudovirus neutralization [3] [µg/mL]","IC50 (µg/ml), pseudovirus neutralization [4] [µg/mL]","IC50 (µg/ml), pseudovirus neutralization [5] [µg/mL]","IC50 (µg/ml), pseudovirus neutralization [6] [µg/mL]","IC50, pseudovirus neutralization [7] [µg/mL]","IC50 (µg/ml), pseudovirus neutralization [8] [µg/mL]","IC50 (µg/ml), pseudovirus neutralization [9] [µg/mL]","IC50 (µg/ml), pseudovirus neutralization [10] [µg/mL]","IC50 (µg/ml), pseudovirus neutralization [11] [µg/mL]","IC50, pseudovirus neutralization [12] [µg/mL]","IC50 (µg/ml), pseudovirus neutralization [13] [µg/mL]","IC50 (µg/ml), pseudovirus neutralization [14] [µg/mL]"
2G12 (antibody),9.23,> 50,> 50,> 50,26.1,0.29,> 50,> 50,48.1,> 50,7.47,> 50,> 50,9.24
1443_C16 (PG16) (TCN-116) (antibody),> 50,> 50,> 50,3.06,0.11,0.22,14.8,> 50,0.04,0.18,0.01,> 50,> 50,> 50
2F5 (antibody),1.78,4.37,> 50,1.25,39.1,> 50,> 50,> 50,1.92,3.9,9.4,0.38,> 50,3.81
1495_C14 (PGC14) (antibody),> 50,> 50,> 50,> 50,> 50,> 50,> 50,> 50,> 50,> 50,> 50,> 50,> 50,> 50
4E10 (antibody),0.44,2.95,> 50,2.19,> 50,1.39,5,5.3,4.97,4.58,12,0.59,15.1,7.33
b12 (antibody),> 50,1.55,> 50,0.86,> 50,> 50,5,> 50,6.92,> 50,4.34,4.25,> 50,> 50
